Patent publication US8685401B2, “Methods of enhancing the response to radiation in tumor therapy using anti-DLL4 antibodies” (priority 2011, dated 2014)

Test system: LS174T cells
Assay: Apoptosis, Caspase-Glo 3/7 assay
Type: cell-based, human
Conditions: 50 nM recombinant TRAIL, 2 hrs

B1: TRAIL: recombinant TRAIL (R&D Systems), positive control for apoptosis (protein, UniProt P50591 1-281, looked up)
Tumor necrosis factor ligand …: MAMMEVQGGPSLGQTCVLIVIFTVLLQSLCVAVTYVYFTNELKQMQDKYSKSGIACFLKEDDSYWDPNDEESMNSPCWQVKWQLRQLVRKMILRTSEETISTVQEKQQNISPLVRERGPQRVAAHITGTRGRSNTLSSPNSKNEKALGRKINSWESSRSGHSFLSNLHLRNGELVIHEKGFYYIYSQTYFRFQEEIKENTKNDKQMVQYIYKYTSYPDPILLMKSARNSCWSKDAEYGLYSIYQGGIFELKENDRIFVSVTNEHLIDMDHEASFFGAFLVG
apoptosis (caspase 3/7), positive control: large increase in apoptosis
